Test results published in patent US20260049134A1 (UNIVERSITY OF FLORIDA RESEARCH FOUNDATION, published 2026).
Where a chain is given by its changes, count along the chain named. Names may count otherwise.

T1: SELL
T1 construct: also called SELL-Fc-His (R&D Systems); L-Selectin
T1 chain: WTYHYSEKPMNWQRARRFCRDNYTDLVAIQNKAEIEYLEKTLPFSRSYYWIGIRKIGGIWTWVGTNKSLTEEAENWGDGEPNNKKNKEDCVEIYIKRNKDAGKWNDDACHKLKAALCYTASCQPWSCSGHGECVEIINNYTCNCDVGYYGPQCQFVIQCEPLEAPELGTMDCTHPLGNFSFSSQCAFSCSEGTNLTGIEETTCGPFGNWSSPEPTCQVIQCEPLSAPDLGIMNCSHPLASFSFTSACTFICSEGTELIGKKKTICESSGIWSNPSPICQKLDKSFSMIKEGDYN

T2: DCC
T2 construct: also called DCC-His (R&D Systems)
T2 chain: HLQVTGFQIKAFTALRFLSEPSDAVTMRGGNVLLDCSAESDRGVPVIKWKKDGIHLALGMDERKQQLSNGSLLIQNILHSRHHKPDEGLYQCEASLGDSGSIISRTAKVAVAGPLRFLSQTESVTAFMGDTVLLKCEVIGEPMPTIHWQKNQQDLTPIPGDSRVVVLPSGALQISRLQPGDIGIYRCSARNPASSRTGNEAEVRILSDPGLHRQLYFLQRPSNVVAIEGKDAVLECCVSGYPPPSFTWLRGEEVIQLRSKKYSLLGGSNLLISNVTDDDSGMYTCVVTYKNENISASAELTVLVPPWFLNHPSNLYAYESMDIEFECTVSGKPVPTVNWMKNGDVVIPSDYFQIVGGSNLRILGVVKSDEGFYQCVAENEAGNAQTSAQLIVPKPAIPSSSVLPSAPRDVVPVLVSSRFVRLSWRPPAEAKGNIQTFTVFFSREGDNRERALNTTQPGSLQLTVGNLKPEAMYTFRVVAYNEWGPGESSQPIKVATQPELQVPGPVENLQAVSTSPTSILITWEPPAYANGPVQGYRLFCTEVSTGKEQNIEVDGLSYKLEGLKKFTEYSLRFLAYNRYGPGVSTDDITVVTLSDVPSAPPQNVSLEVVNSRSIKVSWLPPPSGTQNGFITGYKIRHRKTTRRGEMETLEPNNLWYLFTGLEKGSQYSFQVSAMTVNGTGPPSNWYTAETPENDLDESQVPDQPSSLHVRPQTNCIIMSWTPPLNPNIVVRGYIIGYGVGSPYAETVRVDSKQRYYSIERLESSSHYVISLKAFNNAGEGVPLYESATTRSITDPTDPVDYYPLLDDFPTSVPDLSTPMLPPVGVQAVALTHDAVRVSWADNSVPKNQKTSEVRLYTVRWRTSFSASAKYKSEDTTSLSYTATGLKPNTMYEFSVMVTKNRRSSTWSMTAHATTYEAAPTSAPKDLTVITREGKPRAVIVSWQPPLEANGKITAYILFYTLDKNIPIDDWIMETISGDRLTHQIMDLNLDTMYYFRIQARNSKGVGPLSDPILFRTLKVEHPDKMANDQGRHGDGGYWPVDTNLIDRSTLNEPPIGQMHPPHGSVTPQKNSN

T3: IGSF11
T3 construct: also called IGSF11-Fc (R&D Systems)
T3 chain: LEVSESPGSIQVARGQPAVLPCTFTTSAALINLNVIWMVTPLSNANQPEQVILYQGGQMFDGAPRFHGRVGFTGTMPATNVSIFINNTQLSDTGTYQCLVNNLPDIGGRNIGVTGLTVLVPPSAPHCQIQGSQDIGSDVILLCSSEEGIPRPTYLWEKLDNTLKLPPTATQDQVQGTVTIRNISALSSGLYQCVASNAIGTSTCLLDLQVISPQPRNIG

T4: HHLA2
T4 construct: also called HHLA2-Fc (R&D Systems); B7-H7; not shown: Fc part and any linker
T4 chain: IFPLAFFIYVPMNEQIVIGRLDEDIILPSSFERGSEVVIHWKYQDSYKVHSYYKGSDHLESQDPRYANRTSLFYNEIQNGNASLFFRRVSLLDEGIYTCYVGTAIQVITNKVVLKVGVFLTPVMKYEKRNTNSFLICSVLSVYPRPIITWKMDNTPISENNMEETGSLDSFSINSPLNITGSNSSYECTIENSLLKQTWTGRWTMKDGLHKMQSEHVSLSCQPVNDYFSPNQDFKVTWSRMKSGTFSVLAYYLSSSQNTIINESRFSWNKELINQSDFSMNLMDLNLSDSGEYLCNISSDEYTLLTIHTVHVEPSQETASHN

B1: HW-97 chimeric rabbit-human IgG1 LA/LA/PG (antibody, V domains shown)
VH: QKQLVESGGRLVTPGTPLTLTCTVTGIDLSSHGMSWVRQAPGKGLEWIGVIYPSGSTWYASWARGRFTISKTSTTVDLKMTSLTTEDTATHFCARGDVGGADNNIWGPGTLVTVSS
VL: SFVLTQPASVQVDLGQTVSLTCTAETLSRSYASWYQQKPGQAPVLLIYRDTSRPSGVPDRFSGSSSGNTATLTISGAQAGDEADYYCATSDGSGSSYQYVFGGGTQLTVTG
notes: Fc-silenced (L234A/L235A/P329G) IgG1, lambda; Alexa Fluor 647-labeled in single-step flow cytometry; Prototype of cluster C-97
B2: HW-101 chimeric rabbit-human IgG1 LA/LA/PG (antibody, V domains shown)
VH: QEQLVESGGRLVTPGTPLTLTCKASGFSLGKYDMSWVRQAPGKGLEWIGTIYAGSGSTWYASWAKGRFTISKTSTTVDLKMTSLTTEDTATYFCARDFLGVNSIWGPGTLVTISS
VL: B1 VL with D13N, E25D, G40D, Y48H, S65N, S96N, Y97F, Q98H, Y99F
notes: Fc-silenced (L234A/L235A/P329G) IgG1, lambda; Alexa Fluor 647-labeled in single-step flow cytometry; Cluster C-97
B3: TH9-0022 (antibody, human IgG1, kappa, L234A L235A, V domains shown)
VH: QSLEESGGRLVTPGTPLTLTCTVSGFSLSSYAMNWVRQAPGKGLEWIGIINSYGSTYYASWAKGRFTISKTSTTVDLKITSPTTEDTATYFCARVTYDSYGYGYAPYGMDLWGPGTLVTVSS
VL: LVMTQTPSSTSNAVGGTVTIKCQASQSIGNVLAWYQQKPGQPPKLLIYAASTLASGVPSRVGGSRSGTEYTLTISGVQREDAATYYCLGSDSDSDIAFGGGTELEILR
notes: also called TH9-022; negative control IgG1

Key:
Experiment in all cases: ELISA on coated protein
ICAM1-Fc (R&D Systems) = target: T5, ICAM1-Fc (R&D Systems) (human, UniProt P05362 28-480)
T5 construct: Bought; also called ICAM-1/CD54; not shown: Fc of the bought fusion protein
Protocol: (§1) Recombinant purified ECDs (50-150 ng) of each putative target protein were coated, incubated with 150 ng of the indicated primary antibody, and binding was detected using a peroxidase-conjugated anti-human Fab secondary antibody. Heatmap represents averages of technical triplicates. (8B) Target validation via siRNA knockdown. H929 cells were transfected with siRNA pools targeting the putative antibody targets ICAM1, CADM1, and PTPRG. Cells were then subjected to cognate IgG binding analysis via flow cytometry. (NT, non-targeting siRNA).
(§2) ELISA ELISA was conducted as described previously. Briefly, 50-150 ng of antigen was coated overnight in half-area 96-well plates at 4° C., blocked with 3% BSA at 37° C. for 1 h, and 150 ng of chimeric rabbit/human IgG1 was added, incubating for 2 h at 37° C. […] After incubating at 37° C. for 15 min-1 h (depending on intensity of controls), data were acquired using a SpectraMax M5 plate reader (Molecular Devices).

SELL = target: T1, SELL
Protocol: as §1, §2

DCC = target: T2, DCC
Protocol: as §1, §2

IGSF11 = target: T3, IGSF11
Protocol: as §1, §2

HHLA2 = target: T4, HHLA2
Protocol: as §1, §2

PTP4A3 = target: T6, PTP4A3
T6 construct: also called His-PTP4A3 (R&D Systems)
Protocol: as §1, §2

T5 sequence (P05362 28-480): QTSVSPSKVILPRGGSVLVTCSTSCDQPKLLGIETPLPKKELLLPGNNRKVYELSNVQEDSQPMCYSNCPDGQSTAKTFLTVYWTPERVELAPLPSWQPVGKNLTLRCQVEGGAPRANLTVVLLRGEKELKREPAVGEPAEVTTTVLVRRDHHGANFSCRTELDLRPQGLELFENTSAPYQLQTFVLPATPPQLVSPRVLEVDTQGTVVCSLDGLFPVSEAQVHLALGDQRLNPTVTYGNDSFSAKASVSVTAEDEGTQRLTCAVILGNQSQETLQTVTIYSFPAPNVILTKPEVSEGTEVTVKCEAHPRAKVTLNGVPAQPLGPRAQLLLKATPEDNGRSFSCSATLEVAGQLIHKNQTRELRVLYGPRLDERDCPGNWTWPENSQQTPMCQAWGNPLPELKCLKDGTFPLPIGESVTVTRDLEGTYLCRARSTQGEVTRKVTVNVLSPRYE
T6 sequence (chain, as listed by the source limits assumed): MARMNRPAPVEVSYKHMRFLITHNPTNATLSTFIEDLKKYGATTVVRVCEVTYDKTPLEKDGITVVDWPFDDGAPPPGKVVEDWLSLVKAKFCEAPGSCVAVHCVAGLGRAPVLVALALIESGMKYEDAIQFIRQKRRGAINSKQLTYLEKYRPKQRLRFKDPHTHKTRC

Binder | binding result (ICAM1-Fc (R&D Systems)) | binding result (SELL) | binding result (DCC) | binding result (IGSF11) | binding result (HHLA2) | binding result (PTP4A3)
B1 | no binding (tested: 150 ng IgG1 per well) | no binding (tested: 150 ng IgG1 per well) | no binding (tested: 150 ng IgG1 per well) | no binding (tested: 150 ng IgG1 per well) | no binding (tested: 150 ng IgG1 per well) | no binding (tested: 150 ng IgG1 per well)
B2 | no binding (tested: 150 ng IgG1 per well) | no binding (tested: 150 ng IgG1 per well) | no binding (tested: 150 ng IgG1 per well) | no binding (tested: 150 ng IgG1 per well) | no binding (tested: 150 ng IgG1 per well) | no binding (tested: 150 ng IgG1 per well)
B3 | no binding (tested: 150 ng IgG1 per well) | no binding (tested: 150 ng IgG1 per well) | no binding (tested: 150 ng IgG1 per well) | no binding (tested: 150 ng IgG1 per well) | no binding (tested: 150 ng IgG1 per well) | no binding (tested: 150 ng IgG1 per well)
